Experimental findings from the Immune Epitope Database (IEDB) are described below.

One test concerns the target HLA-A*24:02. In words: IEDB peptide-MHC binding, purified MHC/competitive/radioactivity; filed as Kd, often an IC50 or EC50 that approximates it; ≥ and ≤ were set here for values at or beyond the usual limits of such assays.
A further test addresses HLA-A*01:01. In words: IEDB peptide-MHC binding, purified MHC/direct/fluorescence; filed as Kd, often an IC50 or EC50 that approximates it; ≥ and ≤ were set here for values at or beyond the usual limits of such assays. To be noted: source organism: Influenza A virus (A/chicken/Nanchang/7-010/2000(H3N6)).
The next test has as its target HLA-A*32:01. In words: IEDB peptide-MHC binding, purified MHC/competitive/radioactivity; filed as Kd, often an IC50 or EC50 that approximates it; ≥ and ≤ were set here for values at or beyond the usual limits of such assays.
The next test concerns the target HLA-B*27:05. Nature of the test: IEDB peptide-MHC binding, purified MHC/direct/fluorescence; filed as Kd, often an IC50 or EC50 that approximates it; ≥ and ≤ were set here for values at or beyond the usual limits of such assays. Conditions: source organism: SARS-CoV1.
The target in test [1] is HLA-A*02:01. Nature of the test: IEDB peptide-MHC binding, purified MHC/competitive/fluorescence; ≥ and ≤ were set here for values at or beyond the usual limits of such assays.
For test [2], the target named is HLA-A*02:01. Nature of the test: IEDB peptide-MHC binding, purified MHC/direct/fluorescence; filed as Kd, often an IC50 or EC50 that approximates it; ≥ and ≤ were set here for values at or beyond the usual limits of such assays.
The target in the next test is HLA-A*69:01. Described as above.
In a further test the target is HLA-A*11:01. Described as above.
In another test the target is HLA-A*31:01. The description is as above. To be noted: source organism: SARS-CoV1.
A further test concerns the target HLA-B*15:01. Described as above. Conditions: source organism: SARS-CoV1.
The target of another test is HLA-B*58:01. The test is described as above. Conditions: source organism: SARS-CoV1.
The target in a further test is HLA-B*40:01. The description is as above. Conditions: source organism: Homo sapiens.
In a further test the target is HLA-A*03:01. The test is described as above. To be noted: source organism: Burkholderia ambifaria AMMD.
The target in another test is HLA-A*02:02. Nature of the test: IEDB peptide-MHC binding, purified MHC/competitive/radioactivity; filed as Kd, often an IC50 or EC50 that approximates it; ≥ and ≤ were set here for values at or beyond the usual limits of such assays.
The next test deals with HLA-A*02:03. The test is described as above.
Another test has as its target HLA-A*02:06. The description is as above.
Where [3] appears, read: source organism: Dengue virus 2 Jamaica/1409/1983.
[4] abbreviates: source organism: Zaire ebolavirus.
Where [5] appears, read: source organism: Vaccinia virus WR.
[6] abbreviates: source organism: Mycobacterium tuberculosis.
Setting [7] is: source organism: Bacillus anthracis.
Where [8] appears, read: source organism: Dengue virus 4 Philippines/H241/1956.
Where [9] appears, read: source organism: Sudan ebolavirus.
Where [10] appears, read: source organism: Bacillus cytotoxicus.
[11] abbreviates: source organism: Dengue virus 3 Martinique/1243/1999.
The mark [12] stands for this setting: source organism: Encephalitozoon cuniculi.
[13] abbreviates: source organism: Mammarenavirus caliense.

As for RFGTSLLFL, the Kd with HLA-A*24:02 (source organism: Dengue virus 4 Dominica/814669/1981) is 0.673 µM. In turn, SSEDLNGMI showed a dissociation constant (Kd) with HLA-A*01:01 not below 20 µM. Consider KNFAGPVSQ, for which, in the test with HLA-A*32:01 (setting [3]), the Kd is not below 44.9 µM. In the case of NYRPGYFTQ, the Kd with HLA-A*24:02 (source organism: Dengue virus 1 Brazil/97-11/1997) was not below 44.4 µM. SRYWEPEFY gave a Kd with HLA-B*27:05 of 1.19 µM. For GSTLAGVNV, in the test with HLA-A*02:01 [1] (setting [4]), the concentration for half-maximal inhibition (IC50) was not below 95 µM. For the sequence KTSGYISSF, the Kd in the test with HLA-A*32:01 (setting [5]) is 0.000502 µM.

In the test with HLA-A*02:01 [2] (source organism: Haemophilus influenzae), KTQEPPQVA came in with a dissociation constant Kd of 7.07 µM.

As to ILIDTSAWV, the Kd with HLA-A*69:01 (setting [6]) stood at 0.429 µM.

On to HTLESPVEF, for which the dissociation constant (Kd) in the test with HLA-A*11:01 (source organism: SARS-CoV1) is not below 53.9 µM; with HLA-A*31:01 it was 1.4 µM; with HLA-B*15:01, 1.44 µM; in the test with HLA-B*58:01 it was 0.0981 µM.

Regarding EQDGITYYL, the results for the Kd with HLA-A*02:01 [2] (setting [7]) and with HLA-A*69:01 (setting [7]) were not below 20 µM and 0.0125 µM, respectively. In turn, TTFGRIGVK had a dissociation constant Kd with HLA-A*11:01 (setting [6]) of 0.002 µM.

For the sequence STASDTPSA, the concentration for half-maximal inhibition (IC50) with HLA-A*02:01 [1] (setting [4]) worked out at 12.2 µM.

IAGVAGLIT returned a concentration for half-maximal inhibition (IC50) with HLA-A*02:01 [1] (setting [4]) not below 205 µM. As to HLSNYIVSI, the Kd in the test with HLA-A*32:01 (setting [5]) is 0.000986 µM. On to HMILVVVTT, for which the Kd with HLA-A*32:01 (setting [8]) was not below 77.8 µM. With NSTLEVTEI, the half-maximal inhibitory concentration (IC50) in the test with HLA-A*02:01 [1] (setting [9]) was not below 97.4 µM. For RSGAYVSAI, the Kd with HLA-A*32:01 (setting [3]) stood at 0.378 µM. On to EHAGVISVL, for which the equilibrium dissociation constant (Kd) with HLA-A*69:01 (source organism: Homo sapiens) is 4.64 µM; with HLA-B*40:01, 0.364 µM.

In turn, RLFARTGLE returned a dissociation constant (Kd) with HLA-A*03:01 of 0.748 µM. Turning to PTVAPPAPV, the IC50 with HLA-A*02:01 [1] (setting [4]) is not below 171 µM.

With ALSGFYYVQ, the dissociation constant Kd with HLA-A*02:01 [2] (setting [10]) turned out to be 1.4 µM; with HLA-A*69:01 (setting [10]), 2.36 µM. As for VVEPPRQLV, the figures for the Kd with HLA-A*02:01 [2] (setting [6]) and with HLA-A*69:01 (setting [6]) were not below 5 µM and 20 µM, respectively. As for KALKINWYKK, the dissociation constant (Kd) in the test with HLA-A*32:01 (source organism: Dengue virus 3 Singapore/8120/1995) came out at 8.04 µM. Regarding QWMTTEDMLT, the Kd with HLA-A*24:02 (setting [11]) stood at 6.1 µM. Take WRLSAQWQKG: the dissociation constant (Kd) in the test with HLA-A*32:01 (setting [11]) is not below 36 µM. Regarding TMLSIILVI, the dissociation constant Kd in the test with HLA-A*32:01 (setting [5]) was 0.0156 µM.

In the case of YLPRFLFGV, in the test with HLA-A*02:01 [2] (setting [6]), the Kd worked out at 0.0018 µM. In the case of EDMLTVWNRV, the Kd in the test with HLA-A*32:01 (setting [11]) stood at 13.6 µM. GLITSTVTG registered an IC50 with HLA-A*02:01 [1] (setting [9]) of 12.4 µM. Take YVILTILTI: the Kd in the test with HLA-A*24:02 (setting [8]) is 6.01 µM. For the sequence SLGGVFTSI, the Kd with HLA-A*32:01 (setting [3]) worked out at 0.294 µM. As to DSMFLMTAT, the IC50 with HLA-A*02:01 [1] (source organism: Variola virus) was determined as 4.4 µM. This lies in the single-digit micromolar range.

For the sequence HGLFPQLSA, the 50% inhibitory concentration (IC50) in the test with HLA-A*02:01 [1] (setting [4]) came out at 47.9 µM.

For the sequence IHDFIDNPL, the IC50 with HLA-A*02:01 [1] (setting [9]) was not below 103 µM. For the sequence KLDDTGKKEL, the Kd with HLA-A*02:02 (setting [5]) turned out to be 0.101 µM; in the test with HLA-A*02:03 (setting [5]) it was 0.139 µM; in the test with HLA-A*02:06 (setting [5]) it was 5.53 µM. For QMYRKFSRCT, in that order: not below 25.7 µM, 2.27 µM and 14.7 µM. On to NTKSDNIINI, for which the Kd with HLA-A*02:02 (setting [5]) is not below 30.8 µM; with HLA-A*02:03 (setting [5]), 1.08 µM; with HLA-A*02:06 (setting [5]) it was not below 69.8 µM. Regarding LFSYGTLII, in the test with HLA-A*02:01 [1] (source organism: Variola virus), the IC50 was not below 72.6 µM. With YLVPGEGEQ, the Kd was 7 µM in the test with HLA-A*02:01 [2] (setting [12]) and not below 20 µM with HLA-A*69:01 (setting [12]).

NLILNFLDWI: the equilibrium dissociation constant (Kd) with HLA-A*02:02 (setting [5]) turned out to be 1.69 µM; with HLA-A*02:03 (setting [5]) it was 0.283 µM; with HLA-A*02:06 (setting [5]) it was 0.443 µM.

Consider NINIEVKLFI, for which the dissociation constant (Kd) was 12.5 µM with HLA-A*02:02 (setting [5]), 2.05 µM with HLA-A*02:03 (setting [5]) and 2.32 µM with HLA-A*02:06 (setting [5]). PGPDNSTHN: in the test with HLA-A*02:01 [1] (setting [4]), the IC50 was not below 472 µM. Regarding YNLSLSAAV, the Kd with HLA-A*02:02 (setting [13]) is 0.867 µM; with HLA-A*02:03 (setting [13]), 1.14 µM; with HLA-A*02:06 (setting [13]), 1.66 µM. In the case of SIENKHQRRL, the figures for the Kd with HLA-A*02:02 (setting [5]), with HLA-A*02:03 (setting [5]) and in the test with HLA-A*02:06 (setting [5]) were 17 µM, not below 21.1 µM and not below 53.9 µM, respectively. For the sequence TIFTLTVAW, in the test with HLA-A*32:01 (source organism: Dengue virus 3 Sri Lanka/1266/2000), the dissociation constant Kd was found to be 0.157 µM. As for MAGVEVRYI, the results for the dissociation constant (Kd) in the test with HLA-A*02:02 (setting [5]), with HLA-A*02:03 (setting [5]) and with HLA-A*02:06 (setting [5]) were 0.293 µM, 0.201 µM and 2.05 µM, respectively.
